This assay deals with CXCR4 ligand. Nature of the assay: cell-based or functional assay.

In turn, T140 (peptide) registered an EC50 (nM): anti-HIV activity, concentration where MT-4 cell death by HIV-1 (IIIB) infection is inhibited by 50% (MTT method) of 3.3 nM.
